Reference: article PMC4066749, “A sequence-based approach for prediction of CsrA/RsmA targets in bacteria with experimental validation in Pseudomonas aeruginosa” (Nucleic Acids Research, 2014)

Target: the molecule itself
Test: SEC; Superdex 75 HR 10/30 analytical column calibrated with a Gel Filtration LMW Calibration Kit; absorbance at 280 nm; apparent molecular weights from elution volumes

Row | Protein | binding result | stoichiometry N
1 | RsmA-R44A mutant (natural protein, RsmA of Pseudomonas aeruginosa with R44A; also called the mutant) MLILTRRVGETLMVGDDVTVTVLGVKGNQVRIGVNAPKEVAVHAEEIYQRIQKEKDQEPNH | binds | 
2 | RsmA (regulator of secondary metabolism), His-tagged (natural protein, also called CsrA homolog; wild-type RsmA protein; source: purification from E. coli) not shown |  | 2
